Where no end group is shown, it is not given here.
Key:
[1] = biological target: T1, 369-383 (amidated C-term) (also: biotinylated, site not given here); assay: peptide ELISA, biotinylated peptide on streptavidin plate; background-subtracted absorbance; positive from 0.2
T1 peptide: TLADEVSASLAKQGL-NH2
Procedure: (§1) Additional peptides were used to model potential post-translational modifications of the C- and N-terminal ends of the protein.
(§2) Biotinylated peptides were bound to separate wells of a streptavidin-coated ELISA plate. The plate was blocked and treated with murine 3D6, followed by incubation with a horseradish peroxidase-conjugated anti-mouse antibody. After thorough washing, OPD was applied to the plate and allowed to develop. The plate was read at 450 nm absorbance. Background subtraction was performed with absorbance values from wells containing no primary antibody, and a threshold for positive binding was set to 0.2 absorbance units. […] (FIG. 1)

55-69 = biological target: T2, 55-69 (also: biotinylated, site not given here); assay: as above
T2 construct: also called tau peptide 55-69 (4R0N numbering)
T2 peptide: SLEDEAAGHVTQARM
Procedure: as §1, §2

316-330 = biological target: T3, 316-330 (also: biotinylated, site not given here); assay: as above
T3 construct: also called tau peptide 316-330 (4R0N numbering)
T3 peptide: HKLTFRENAKAKTDH
Procedure: as §1, §2

10-24 = biological target: T4, 10-24 (also: biotinylated (site not given here)); assay: as above
T4 construct: also called tau peptide 10-24 (4R0N numbering)
T4 peptide: VMEDHAGTYGLGDRK
Procedure: as §1, §2

298-312 = biological target: T5, 298-312 (also: biotinylated, site not given here); assay: as above
T5 construct: also called tau peptide 298-312 (4R0N numbering)
T5 peptide: SLDNITHVPGGGNKK
Procedure: as §1, §2

19-33 = biological target: T6, 19-33 (also: biotinylated, site not given here); assay: as above
T6 construct: also called tau peptide 19-33 (4R0N numbering)
T6 peptide: GLGDRKDQGGYTMHQ
Procedure: as §1, §2

28-42 = biological target: T7, 28-42 (also: biotinylated, site not given here); assay: as above
T7 construct: also called tau peptide 28-42 (4R0N numbering)
T7 peptide: GYTMHQDQEGDTDAG
Procedure: as §1, §2

343-357 = biological target: T8, 343-357 (also: biotinylated, site not given here); assay: as above
T8 construct: also called tau peptide 343-357 (4R0N numbering)
T8 peptide: GDTSPRHLSNVSSTG
Procedure: as §1, §2

1-15* (free N-term) = biological target: T9, 1-15* (free N-term) (also: biotinylated (site not given here)); assay: as above
T9 construct: also called tau peptide 1-15 (4R0N numbering), free N-terminus
T9 peptide: H-MAEPRQEFEVMEDHA
Procedure: as §1, §2

352-366 = biological target: T10, 352-366 (also: biotinylated, site not given here); assay: as above
T10 construct: also called tau peptide 352-366 (4R0N numbering)
T10 peptide: NVSSTGSIDMVDSPQ
Procedure: as §1, §2

307-321 = biological target: T11, 307-321 (also: biotinylated, site not given here); assay: as above
T11 construct: also called tau peptide 307-321 (4R0N numbering)
T11 peptide: GGGNKKIETHKLTFR
Procedure: as §1, §2

136-150 = biological target: T12, 136-150 (also: biotinylated, site not given here); assay: as above
T12 construct: also called tau peptide 136-150 (4R0N numbering)
T12 peptide: RSGYSSPGSPGTPGS
Procedure: as §1, §2

217-231 = biological target: T13, 217-231 (also: biotinylated, site not given here); assay: as above
T13 construct: also called tau peptide 217-231 (4R0N numbering)
T13 peptide: VQIINKKLDLSNVQS
Procedure: as §1, §2

325-339 = biological target: T14, 325-339 (also: biotinylated, site not given here); assay: as above
T14 construct: also called tau peptide 325-339 (4R0N numbering)
T14 peptide: KAKTDHGAEIVYKSP
Procedure: as §1, §2

154-168 = biological target: T15, 154-168 (biotinylated); assay: as above
T15 construct: also called tau peptide 154-168 (4R0N numbering)
Procedure: as §1, §2

64-78 = biological target: T16, 64-78 (also: biotinylated, site not given here); assay: as above
T16 construct: also called tau peptide 64-78 (4R0N numbering)
T16 peptide: VTQARMVSKSKDGTG
Procedure: as §1, §2

46-60 = biological target: T17, 46-60 (also: biotinylated, site not given here); assay: as above
T17 construct: also called tau peptide 46-60 (4R0N numbering)
T17 peptide: EEAGIGDTPSLEDEA
Procedure: as §1, §2

361-375 = biological target: T18, 361-375 (also: biotinylated, site not given here); assay: as above
T18 peptide: MVDSPQLATLADEVS
Procedure: as §1, §2

[2] = biological target: biotinylated recombinant tau (UniProt P10636-6 1-383, limits assumed, biotinylated); assay: competition ELISA: inhibition of biotinylated tau binding to plate-bound low molecular weight heparin
Sequence of biotinylated recombinant tau (P10636 other isoform, or with tags, fused parts or gaps limits assumed): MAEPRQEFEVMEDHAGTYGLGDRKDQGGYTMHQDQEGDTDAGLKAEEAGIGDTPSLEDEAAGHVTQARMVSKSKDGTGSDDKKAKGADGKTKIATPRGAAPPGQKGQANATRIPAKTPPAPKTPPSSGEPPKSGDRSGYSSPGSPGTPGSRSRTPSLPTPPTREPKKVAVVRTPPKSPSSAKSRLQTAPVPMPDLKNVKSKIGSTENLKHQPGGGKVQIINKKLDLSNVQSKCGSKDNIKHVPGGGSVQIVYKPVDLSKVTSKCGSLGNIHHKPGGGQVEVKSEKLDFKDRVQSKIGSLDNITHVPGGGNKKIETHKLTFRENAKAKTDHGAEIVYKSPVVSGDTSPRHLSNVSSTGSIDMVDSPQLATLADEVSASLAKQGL
Procedure: To test the ability of murine and humanized 3D6 variants to interrupt tau interaction with heparin, ELISA plates coated with low molecular weight heparin were first blocked with 2% BSA in PBS for 2h at room temperature. Plates were washed with TBST. After blocking, plates were incubated with biotinylated recombinant tau along with indicated concentrations of unlabeled antibody in 1% BSA/PBS for one hour at room temperature. Plates were again washed, and then incubated with streptavidin-HRP in 0.1% BSA/PBS for 45 min. Plates were then washed and developed with OPD, and absorbance was measured at 490 nm. Inhibition curves were analyzed using a 4-parameter log fit.

binding result [1]: no binding
binding result (55-69): no binding
binding result (316-330): no binding
binding result (10-24): no binding
binding result (298-312): no binding
binding result (19-33): no binding
binding result (28-42): no binding
binding result (343-357): no binding
binding result (1-15* (free N-term)): no binding
binding result (352-366): no binding
binding result (307-321): no binding
binding result (136-150): no binding
binding result (217-231): no binding
binding result (325-339): no binding
binding result (154-168): no binding
binding result (64-78): no binding
binding result (46-60): no binding
binding result (361-375): no binding
IC50 [2]: 0.409 nM
B1: murine 3D6 monoclonal antibody (antibody, IgG1, V domains shown)
VH: EVQLQQSGADLVRPGALVKLSCKASGFNIKDYYLHWVRQRPEQGLEWIGWIDPENGDTVYDPKFQGKATITADTSSNTAYLQLGSLTSEDTAVYFCSTLDFWGQGTTLTVSS
VL: not shown
notes: Hybridoma-derived mouse antibody; also called m3D6; mouse 3D6

— patent US20200369755A1 (PROTHENA BIOSCIENCES, published 2020)
